Experimental data published in the supplement of paper PMC11246515.
± gives the standard deviation of the averaged measurements.

Assay: total protein half-life in vivo (active degradation + dilution); higher = more stable protein
[1] = E. coli NCM3722 delta-smpB, growth: N-lim chemostat, doubling time 6 h
[2] = wild type E. coli NCM3722, growth: C-lim chemostat, doubling time 3 h
[3] = wild type E. coli NCM3722, growth: C-lim chemostat, doubling time 6 h
[4] = wild type E. coli NCM3722, growth: C-lim chemostat, doubling time 12 h
[5] = wild type E. coli NCM3722, growth: N-lim chemostat, doubling time 6 h
[6] = wild type E. coli NCM3722, growth: P-lim chemostat, doubling time 6 h
[7] = wild type E. coli NCM3722, growth: P-lim chemostat, doubling time 12 h
[8] = E. coli NCM3722 delta-clpP delta-lon delta-hslV, growth: N-lim chemostat, doubling time 6 h
[9] = E. coli NCM3722 delta-clpP, growth: N-lim chemostat, doubling time 6 h
[10] = E. coli NCM3722 delta-hslV, growth: N-lim chemostat, doubling time 6 h
[11] = E. coli NCM3722 delta-lon, growth: N-lim chemostat, doubling time 6 h
[12] = wild type E. coli NCM3722, growth: N-lim chemostat, doubling time 12 h

| Substance | total protein half-life in vivo [1] [h] | total protein half-life in vivo [2] [h] | total protein half-life in vivo [3] [h] | total protein half-life in vivo [4] [h] | total protein half-life in vivo [5] [h] | total protein half-life in vivo [6] [h] | total protein half-life in vivo [7] [h] | total protein half-life in vivo [8] [h] | total protein half-life in vivo [9] [h] | total protein half-life in vivo [10] [h] | total protein half-life in vivo [11] [h] | total protein half-life in vivo [12] [h] |
| --- | --- | --- | --- | --- | --- | --- | --- | --- | --- | --- | --- | --- |
| MAESTVTADSKLTSSDTRRRIWAIVGASSGNLVEWFDFYVYSFCSLYFAHIFFPSGNTTTQLLQTAGVFAAGFLMRPIGGWLFGRIADKHGRKKSMLLSVCMMCFGSLVIACLPGYETIGTWAPALLLLARLFQGLSVGGEYGTSATYMSEVAVEGRKGFYASFQYVTLIGGQLLALLVVVVLQHTMEDAALREWGWRIPFALGAVLAVVALWLRRQLDETSQQETRALKEAGSLKGLWRNRRAFIMVLGFTAAGSLCFYTFTTYMQKYLVNTAGMHANVASGIMTAALFVFMLIQPLIGALSDKIGRRTSMLCFGSLAAIFTVPILSALQNVSSPYAAFGLVMCALLIVSFYTSISGILKAEMFPAQVRALGVGLSYAVANAIFGGSAEYVALSLKSIGMETAFFWYVTLMAVVAFLVSLMLHRKGKGMRL [P0AEX3] | 1.61 ± 0.23 | 2.88 ± 0.36 | 4.51 | 10 ± 2.4 | 2.01 | 4.35 ± 0.23 | 6.27 ± 0.29 |  |  |  |  |  |
| MADEIDAMALYRAWQQLDNGSCAQIRRVSEPDELRDIPAFYRLVQPFGWENPRHQQALLRMVFCLSAGKNVIRHQDKKSEQTTGISLGRALANSGRINERRIFQLIRADRTADMVQLRRLLTHAEPVLDWPLMARMLTWWGKRERQQLLEDFVLTTNKNA |  |  |  |  |  |  |  | 5.62 ± 1.1 |  |  |  |  |
| P0AES2 | 3.21 ± 0.19 | 3.03 ± 0.049 | 5.26 ± 0.72 | 8.83 ± 0.4 | 3.14 ± 0.086 | 5.38 ± 0.73 | 8.99 ± 0.022 | 4.25 ± 0.51 | 3.729 ± 0.03 | 3.64 ± 0.5 | 3.41 ± 0.14 | 4.57 ± 0.082 |
| MHVLNILWVVFGIGLMLVLNLKFKINSMVALLVAALSVGMLAGMDLMSLLHTMKAGFGNTLGELAIIVVFGAVIGKLMVDSGAAHQIAHTLLARLGLRYVQLSVIIIGLIFGLAMFYEVAFIMLAPLVIVIAAEAKIPFLKLAIPAVAAATTAHSLFPPQPGPVALVNAYGADMGMVYIYGVLVTIPSVICAGLILPKFLGNLERPTPSFLKADQPVDMNNLPSFGVSILVPLIPAIIMISTTIANIWLVKDTPAWEVVNFIGSSPIAMFIAMVVAFVLFGTARGHDMQWVMNAFESAVKSIAMVILIIGAGGVLKQTIIDTGIGDTIGMLMSHGNISPYIMAWLITVLIRLATGQGVVSAMTAAGIISAAILDPATGQLVGVNPALLVLATAAGSNTLTHINDASFWLFKGYFDLSVKDTLKTWGLLELVNSVVGLIIVLIISMVA [P0AC94] |  | 2.92 ± 1.2 | 6.04 ± 0.1 | 13.5 |  |  |  |  |  |  |  |  |
| MSTPDNHGKKAPQFAAFKPLTTVQNANDCCCDGACSSTPTLSENVSGTRYSWKVSGMDCAACARKVENAVRQLAGVNQVQVLFATEKLVVDADNDIRAQVESALQKAGYSLRDEQAAEEPQASRLKENLPLITLIVMMAISWGLEQFNHPFGQLAFIATTLVGLYPIARQALRLIKSGSYFAIETLMSVAAIGALFIGATAEAAMVLLLFLIGERLEGWAASRARQGVSALMALKPETATRLRKGEREEVAINSLRPGDVIEVAAGGRLPADGKLLSPFASFDESALTGESIPVERATGDKVPAGATSVDRLVTLEVLSEPGASAIDRILKLIEEAEERRAPIERFIDRFSRIYTPAIMAVALLVTLVPPLLFAASWQEWIYKGLTLLLIGCPCALVISTPAAITSGLAAAARRGALIKGGAALEQLGRVTQVAFDKTGTLTVGKPRVTAIHPATGISESELLTLAAAVEQGATHPLAQAIVREAQVAELAIPTAESQRALVGSGIEAQVNGERVLICAAGKHPADAFTGLINELESAGQTVVLVVRNDDVLGVIALQDTLRADAATAISELNALGVKGVILTGDNPRAAAAIAGELGLEFKAGLLPEDKVKAVTELNQHAPLAMVGDGINDAPAMKAAAIGIAMGSGTDVALETADAALTHNHLRGLVQMIELARATHANIRQNITIALGLKGIFLVTTLLGMTGLWLAVLADTGATVLVTANALRLLRRR | 4.331 ± 0.021 | 2.62 ± 0.26 | 4.55 ± 0.4 | 6.13 ± 1.8 | 3.874 ± 0.016 | 4.2 ± 0.081 | 7.64 ± 0.21 | 4.91 ± 0.22 | 4.33 ± 0.16 | 4.07 ± 0.092 | 5.05 ± 0.95 | 7.59 ± 0.2 |
| MITIPITLRMLIAKYLCLLKPFWLRKNNKTSVLLIIIILAMILGVVKIQVWLNDWNNDFFNALSQKETDKLWQLVLWFPALLGIFVLISVNKTWLIKLLTIRWREWLTDYYLNRWFADKNYYFTQIYGEHKNTDNPDQRIAEDILLLISKTLSLSFGFIQSLSMLITFTVILWESAGTLSFTVGGTEWNIQGYMVYTVVLIVIGGTLFTHKVGKRIRPLNVEKQRSEATFRTNLVQHNKQAELIALSNAESLQRQELSDNFHTIKENWHRLMNRQRWLDYWQNIYSRSLSVLPYFLLLPQFISGQINLGGLMKSRQAFMLVSNNLSWFIYKYDELAELAAVIDRLYEFHQLTEQRPTNKPKNCQHAVQVADASIRTPDNKIILENLNFHVSPGKWLLLKGYSGAGKTTLLKTLSHCWPWFKGDISSPADSWYVSQTPLIKTGLLKEIICKALPLPVDDKSLSEVLHQVGLGKLAARIHDHDRWGDILSSGEKQRIALARLILRRPKWIFLDETTSHLEEQEAIRLLRLVREKLPTSGVIMVTHQPGVWNLADDICDISAVL |  | 3.2 ± 0.6 | 5.29 ± 0.53 | 11.5 ± 1.1 |  |  |  |  |  |  |  |  |
| MCGRFAQSQTREDYLALLAEDIERDIPYDPEPIGRYNVAPGTKVLLLSERDEHLHLDPVFWGYAPGWWDKPPLINARVETAATSRMFKPLWQHGRAICFADGWFEWKKEGDKKQPFFIYRADGQPIFMAAIGSTPFERGDEAEGFLIVTAAADQGLVDIHDRRPLVLSPEAAREWMRQEISGKEASEIAASGCVPANQFSWHPVSRAVGNVKNQGAELIQPV | 3.52 ± 0.22 |  | 5.39 ± 0.18 | 9.42 ± 0.51 | 3.45 ± 0.065 | 5.07 ± 0.74 | 9.67 ± 1.4 | 4.83 ± 0.49 | 4.014 ± 0.026 | 4.54 | 4.55 ± 0.27 |  |
| MPLIIVVAGIALLLLLTIKIKLNTFVSLIIVSIAVAIASGMDLSKVVTSVESGLGGTLGHIGLIFGFGVMLGRLLADAGGAQRIALTMLNYFGKNKLDWAVVCSAFIVGIALFFEVGLILLVPILFAIAREAKISPMFMCVPMLSGLLVAHGFLPPHPGPTVIAREYGADVGLVLIYGIIVGIPTFILCGPVLNKFCQRIIPDAFKKEGNIASLGATRRFSESEMPGFGISFLTAMLPVILMAVVTIIQMTHAKSAADSGLFYNVILFLGNSTIAMLISLLFAIYTMGLGRGKTIPDLMDSCGKAIAGIAGLLLIIGGGGAFKQVLIDSGVGQYISTLVSGMDINPILMAWGVAAFLRICLGSATVAAISTAGLVIPLLAVHPNTNLALITLATGAGSCICSHVNDASFWMIKDFFGLTTKETLLSWTLMSTLLSISGLIFILLASLVL | 6.77 | 3.22 |  |  |  |  |  |  |  |  |  |  |
| MLIRVEIPIDAPGIDALLRRSFESDAEAKLVHDLREDGFLTLGLVATDDEGQVIGYVAFSPVDVQGEDLQWVGMAPLAVDEKYRGQGLARQLVYEGLDSLNEFGYAAVVTLGDPALYSRFGFELAAHHDLRCRWPGTESAFQVHRLADDALNGVTGLVEYHEHFNRF | 3.73 ± 0.17 | 3.02 ± 0.3 |  | 9.91 ± 0.78 | 4.51 ± 0.72 | 5.72 ± 0.43 | 11.7 ± 0.65 | 5.29 ± 0.2 | 4.46 ± 0.13 | 4.22 ± 0.15 | 4.44 ± 0.37 | 7.82 ± 0.18 |
| MRVLIVKTSSMGDVLHTLPALTDAQQAIPGIKFDWVVEEGFAQIPSWHAAVERVIPVAIRRWRKAWFSAPIKAERKAFREALQAENYDAVIDAQGLVKSAALVTRLAHGVKHGMDWQTAREPLASLFYNRKHHIAKQQHAVERTRELFAKSLGYSKPQTQGDYAIAQHFLTNLPTDAGEYAVFLHATTRDDKHWPEEHWRELIGLLADSGIRIKLPWGAPHEEERAKRLAEGFAYVEVLPKMSLEGVARVLAGAKFVVSVDTGLSHLTAALDRPNITVYGPTDPGLIGGYGKNQMVCRAPRENLINLNSQAVLEKLSSL | 5.74 ± 1.2 | 2.76 ± 0.13 | 5.73 ± 0.28 | 13.2 ± 2.2 | 5.72 ± 0.27 | 5.23 ± 0.16 | 10.63 ± 0.039 | 5.54 ± 0.21 | 5.02 ± 0.34 | 5.1 | 5.08 ± 0.063 | 11.5 ± 2.6 |
| MKRAPLITGLLLISTSCAYASSGGCGADSTSGATNYSSVVDDVTVNQTDNVTGREFTSATLSSTNWQYACSCSAGKAVKLVYMVSPVLTTTGHQTGYYKLNDSLDIKTTLQANDIPGLTTDQVVSVNTRFTQIKNNTVYSAATQTGVCQGDTSRYGPVNIGANTTFTLYVTKPFLGSMTIPKTDIAVIKGAWVDGMGSPSTGDFHDLVKLSIQGNLTAPQSCKINQGDVIKVNFGFINGQKFTTRNAMPDGFTPVDFDITYDCGDTSKIKNSLQMRIDGTTGVVDQYNLVARRRSSDNVPDVGIRIENLGGGVANIPFQNGILPVDPSGHGTVNMRAWPVNLVGGELETGKFQGTATITVIVR |  | 3.66 | 6.25 ± 0.34 | 11.5 | 5.8 | 5.42 | 13.3 |  | 5.21 | 6.04 ± 0.24 |  | 14 |
| MTDKLTSLRQYTTVVADTGDIAAMKLYQPQDATTNPSLILNAAQIPEYRKLIDDAVAWAKQQSNDRAQQIVDATDKLAVNIGLEILKLVPGRISTEVDARLSYDTEASIAKAKRLIKLYNDAGISNDRILIKLASTWQGIRAAEQLEKEGINCNLTLLFSFAQARACAEAGVFLISPFVGRILDWYKANTDKKEYAPAEDPGVVSVSEIYQYYKEHGYETVVMGASFRNIGEILELAGCDRLTIAPALLKELAESEGAIERKLSYTGEVKARPARITESEFLWQHNQDPMAVDKLAEGIRKFAIDQEKLEKMIGDLL [P0A870] | 5.04 ± 0.11 | 3.448 ± 0.0017 | 5.81 ± 0.19 | 11.1 ± 1.2 | 5.14 ± 0.23 | 6.18 ± 0.083 | 13.7 ± 0.78 | 5.35 ± 0.57 | 5.12 ± 0.34 | 5.35 ± 0.39 | 5.6 ± 0.23 | 9.23 ± 0.13 |
